In the MegaScale stability set (Tsuboyama et al. 2023):

B1: EHEE_rd2_0601 (parent)
chain: TYTYKLTDEEASRRAEDEWRNRGYDVRVRNNNGTWEVEVR

Variants of: B1
Experiment: folding stability dG (cDNA display proteolysis); higher = more stable
Conditions: PBS, room temperature

Row | Variant | folding stability dG [kcal/mol]
1 | D8I | 0.306
2 | D8L | 0.261
3 | D8F | 0.427
4 | D8Y | 0.298
5 | D8G | 0.808
6 | K5R | 1.56
7 | K5Y | 2.64
8 | K5S | 1.58
9 | K5G | 0.688
10 | K5F | 2.34
11 | K5A | 1.38
12 | K5M | 1.72
13 | K5Q | 1.71
14 | K5W | 1.83
15 | K5D | 0.851
16 | K5P | 0.658
17 | K5T | 1.95
18 | K5I | 2.2
19 | K5L | 1.84
20 | K5E | 1.31
21 | K5N | 1.38
22 | K5V | 1.97
23 | K5H | 1.74
24 | Y2R | 1.58

Row | Variant | folding stability dG [kcal/mol]
25 | Y2T | 1.38
26 | Y2D | 0.375
27 | Y2K | 1.33
28 | Y2M | 1.46
29 | Y2Q | 1.04
30 | Y2I | 1.69
31 | Y2E | 0.682
32 | Y2N | 0.674
33 | Y2G | 0.413
34 | Y2L | 1.41
35 | Y2A | 0.941
36 | Y2W | 2.04
37 | Y2H | 1.37
38 | Y2F | 1.76
39 | Y2P | 0.083
40 | Y2S | 0.609
41 | Y2V | 1.63
42 | E16L | 1.54
43 | E16A | 2.56
44 | E16P | -0.034
45 | E16F | 1.73
46 | E16S | 1.47
47 | E16M | 1.68
48 | E16K | 0.777

Row | Variant | folding stability dG [kcal/mol]
49 | E16N | 0.335
50 | E16Q | 1.46
51 | E16W | 1.3
52 | E16H | 1.08
53 | E16Y | 1.86
54 | E16D | -0.24
55 | E16R | 1.19
56 | E16T | 1.29
57 | E16I | 1.82
58 | E16G | 1.4
59 | E16V | 2
60 | E9M | 0.936
61 | E9Q | 1.07
62 | E9R | 0.802
63 | E9D | 0.289
64 | E9H | 0.807
65 | E9L | 1.14
66 | E9P | 0.822
67 | E9Y | 1.58
68 | E9I | 0.934
69 | E9G | 0.631
70 | E9W | 1.26
71 | E9V | 0.885
72 | E9T | 0.198

Row | Variant | folding stability dG [kcal/mol]
73 | E9A | 1.12
74 | E9N | 0.05
75 | E9F | 1.29
76 | E9S | 0.61
77 | E9K | 0.834
78 | R14W | 0.994
79 | R14G | 0.487
80 | R14I | 1.35
81 | R14F | 1.13
82 | R14K | 1.53
83 | R14T | 0.957
84 | R14E | 1
85 | R14Y | 0.942
86 | R14Q | 1.35
87 | R14P | -0.495
88 | R14D | 0.704
89 | R14M | 1.2
90 | R14L | 1.33
91 | R14H | 1.22
92 | R14N | 1.04
93 | R14S | 0.898
94 | R14V | 1.29
95 | R14A | 1.36
96 | R13E | 0.263

Row | Variant | folding stability dG [kcal/mol]
97 | R13N | 0.767
98 | R13K | 1.45
99 | R13D | 0.014
100 | R13F | 0.619
101 | R13S | 0.553
102 | R13Y | 0.805
103 | R13W | 0.841
104 | R13A | 0.771
105 | R13I | 0.934
106 | R13G | 0.328
107 | R13Q | 0.968
108 | R13V | 0.764
109 | R13H | 0.979
110 | R13L | 1.08
111 | R13C | 0.559
112 | R13T | 0.582
113 | R13M | 0.987
114 | R13P | -0.953
115 | A11S | 1.58
116 | A11P | -0.502
117 | A11Y | 0.624
118 | A11E | 1.5
119 | A11L | 0.971
120 | A11W | 0.697

Row | Variant | folding stability dG [kcal/mol]
121 | A11F | 0.664
122 | A11I | 0.447
123 | A11R | 0.546
124 | A11M | 1.11
125 | A11Q | 1.22
126 | A11K | 0.673
127 | A11H | 0.875
128 | A11G | 0.768
129 | A11T | 1.19
130 | A11D | 1.12
131 | A11V | 0.486
132 | A11N | 0.709
133 | D17K | 2.02
134 | D17H | 1.68
135 | D17L | 2.06
136 | D17V | 2.08
137 | D17F | 1.86
138 | D17E | 1.99
139 | D17I | 2.17
140 | D17N | 1.78
141 | D17T | 1.99
142 | D17S | 1.88
143 | D17G | 1.24
144 | D17M | 2.11

Row | Variant | folding stability dG [kcal/mol]
145 | D17W | 1.92
146 | D17R | 2.1
147 | D17Q | 2.08
148 | D17Y | 1.77
149 | D17A | 2.17
150 | A15K | 1.37
151 | A15W | 1.36
152 | A15G | -0.371
153 | A15E | 0.824
154 | A15Q | 0.788
155 | A15N | 0.072
156 | A15H | 1.43
157 | A15Y | 1.4
158 | A15V | 2.21
159 | A15D | 0.605
160 | A15P | -0.743
161 | A15T | 1.43
162 | A15S | 0.658
163 | A15F | 1.85
164 | A15L | 2.46
165 | A15R | 0.442
166 | A15I | 2.2
167 | A15M | 2.13
